In PMC10998906:

Experiments:
[1] = molecular target: HA GCN4 (NL03 HA fused to a GCN4 trimerization domain) (influenza A virus A/Netherlands/213/2003(H3N2)); assay: negative-stain EM
[2] = molecular target: HA GCN4 (NL03 HA fused to a GCN4 trimerization domain) (influenza A virus A/Netherlands/213/2003(H3N2)); assay: SEC

“HA GCN4 (NL03 HA fused to a GCN4 trimerization domain) (domain or fragment)” was tested, and the stoichiometry N [1] was 3 and the stoichiometry N [2] was 3.
